Results from patent publication US20220259307A1 (Memorial Sloan Kettering, published 2022).
Where a chain is given by its changes, count along the chain named. Numbers in names are those of the source.

B1: chimeric HIM34×CD3 bispecific antibody (chHIM34 BsAb) (bispecific antibody)
light: DIVMTQSPSSLSASLGGKVTITCKASQDINKYIAWYQHKPGKGPRLLIHYTSTLQPGIPSRFSGSGSGRDYSFSISNLEPEDIATYYCLQYDNLLTFGAGTKLELKRTVAAPSVFIFPPSDEQLKSGTASVVCLLNNFYPREAKVQWKVDNALQSGNSQESVTEQDSKDSTYSLSSTLTLSKADYEKHKVYACEVTHQGLSSPVTKSFNRGECTSGGGGSGGGGSGGGGSQVQLVQSGGGVVQPGRSLRLSCKASGYTFTRYTMHWVRQAPGKCLEWIGYINPSRGYTNYNQKFKDRFTISRDNSKNTAFLQMDSLRPEDTGVYFCARYYDDHYSLDYWGQGTPVTVSSGGGGSGGGGSGGGGSGGGGSGGGGSGGGGSDIQMTQSPSSLSASVGDRVTITCSASSSVSYMNWYQQTPGKAPKRWIYDTSKLASGVPSRFSGSGSGTDYTFTISSLQPEDIATYYCQQWSSNPFTFGCGTKLQITR
heavy: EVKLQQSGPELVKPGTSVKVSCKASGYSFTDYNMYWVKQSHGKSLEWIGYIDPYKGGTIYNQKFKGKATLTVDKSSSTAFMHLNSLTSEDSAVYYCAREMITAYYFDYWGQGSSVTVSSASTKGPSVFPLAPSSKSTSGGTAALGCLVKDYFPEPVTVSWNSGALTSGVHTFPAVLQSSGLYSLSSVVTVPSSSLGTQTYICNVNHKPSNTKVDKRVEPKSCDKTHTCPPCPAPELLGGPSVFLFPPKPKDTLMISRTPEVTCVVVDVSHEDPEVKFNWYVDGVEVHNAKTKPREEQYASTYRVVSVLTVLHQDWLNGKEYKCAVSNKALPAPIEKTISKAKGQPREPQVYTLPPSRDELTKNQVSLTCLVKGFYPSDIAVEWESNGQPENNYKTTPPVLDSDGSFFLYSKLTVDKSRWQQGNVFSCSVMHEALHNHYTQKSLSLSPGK
notes: IgG-scFv format (tetravalent); also called chHIM34×CD3 BsAb; chimeric CD33-BsAb
B2: humanized HIM34 BsAb L4H4 (bispecific antibody, human IgG1, V domains shown)
VH: QVQLVQSGAEVKKPGASVKVSCKASGYSFTDYNMYWVRQAPGQGLEWIGYIDPYKGGTNYAQKFQGRATLTVDKSSSTAYMELSRLRSDDTAVYYCAREMITAYYFDYWGQGSSVTVSS
VL: DIQMTQSPSSLSASVGDRVTITCKASQDINKYIAWYQHKPGKAPKLLIYYASNLQPGVPSRFSGSGSGRDFTFTISSLQPEDIATYYCLQYDNLLTFGAGTKLELK
notes: Tested as a humanized HIM34×CD3 BsAb in the IgG-scFv format (human IgG1 N297A/K322A, humanized OKT3 scFv on the light chain)
B3: humanized HIM34 BsAb L3H4 (bispecific antibody, human IgG1, V domains shown)
VH: B2 VH
VL: B2 VL with Y49H, A51T, N53T, Q55E, P56T, R69T
notes: Tested as a humanized HIM34×CD3 BsAb in the IgG-scFv format: human IgG1 with N297A/K322A, humanized OKT3 scFv on the light chain C-terminus via (G4S)3
B4: humanized HIM34 BsAb L4H7 (bispecific antibody, human IgG1, V domains shown)
VH: B2 VH with V5Q, N59I, A61N, Q65K, V72R, K74T, S76I
VL: B2 VL
notes: as for B2
B5: humanized HIM34 BsAb L4H1 (bispecific antibody, human IgG1, V domains shown)
VH: B2 VH with V5Q, K12V, A68V, L70M
VL: B2 VL
notes: as for B2

Each binder was assayed against T1, CD33 (immobilized on CM5 sensor chip) (UniProt P20138 18-259, limits assumed) (assay: SPR (Biacore T-200), CD33 immobilized on CM5 chip).
T1 construct: also called CD33 antigen
T1 sequence (P20138 18-259 limits assumed): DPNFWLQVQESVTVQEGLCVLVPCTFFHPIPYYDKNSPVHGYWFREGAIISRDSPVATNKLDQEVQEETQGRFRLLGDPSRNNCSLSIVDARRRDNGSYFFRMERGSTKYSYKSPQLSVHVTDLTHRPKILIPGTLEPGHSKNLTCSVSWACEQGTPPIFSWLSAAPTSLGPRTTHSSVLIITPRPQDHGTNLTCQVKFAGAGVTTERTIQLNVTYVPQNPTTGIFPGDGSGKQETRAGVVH

Binder | Kd [pM] | koff [s⁻¹] | kon [M⁻¹ s⁻¹]
B1 | 128 | 0.000117 | 914000
B2 | 1650 | 0.00743 | 4.5e+06
B3 | 955 | 0.00175 | 1.84e+06
B4 | 198 | 0.00017 | 861000
B5 | 1210 | 0.00597 | 4.95e+06

These binders were tested against full length CD33 on cells (human, UniProt P20138 18-364) (assay: cell-based or functional assay).
Sequence of full length CD33 on cells (P20138 18-364): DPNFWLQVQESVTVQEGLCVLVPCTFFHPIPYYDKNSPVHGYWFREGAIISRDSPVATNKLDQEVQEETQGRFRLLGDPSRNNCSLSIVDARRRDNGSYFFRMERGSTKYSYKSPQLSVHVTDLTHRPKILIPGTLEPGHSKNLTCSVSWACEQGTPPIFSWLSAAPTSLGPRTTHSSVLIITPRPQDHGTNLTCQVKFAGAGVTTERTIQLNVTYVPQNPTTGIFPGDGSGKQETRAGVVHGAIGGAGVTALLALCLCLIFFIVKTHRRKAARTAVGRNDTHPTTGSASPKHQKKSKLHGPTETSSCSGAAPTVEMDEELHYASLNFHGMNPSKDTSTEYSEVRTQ

Binder | EC50 of T cell cytotoxicity, 4-hour 51Cr release assay, C1498-CD33 cells [pM] | EC50 of T cell cytotoxicity, 4-hour 51Cr release assay, THP1 cells [pM]
B1 | 0.001 | 0.2
